# Test results taken from the supplement of paper PMC10065799, “High-throughput profiling of sequence recognition by tyrosine kinases and SH2 domains using bacterial peptide display” (eLife, 2023).
# Tested on: c-Src
# Assay: phosphorylation enrichment, bacterial display (enrichment ratio); higher = better substrate or ligand; peptides without Tyr show the background
# 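Wherever SH2 binding enrichment of the phosphorylated peptide, bacterial display is given: peptide library displayed on the E. coli surface as eCPX fusions, selected cells deep-sequenced, score is each peptide's frequency after selection divided by its frequency in the input.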
# 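Wherever phosphorylation enrichment, bacterial display is given: 11-residue human phosphosite peptides and single-mutation variants displayed on the E. coli surface, counted by deep sequencing, each peptide's frequency after selection divided by its frequency in the unselected input library; frequency after pTyr selection over input frequency; kinase dosed for 20-30% of maximal phosphorylation in three min.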
row,Sequence,phosphorylation enrichment
1,EFKKHYGYSLY [ANXA3_Y295],0.598
2,LKEIHYPPFTD [ALDH3B2_Y362_YF],0.401
3,NQELIYEGQRL [TBK1_Y354_R357Q],6.85
4,YRRITYYNWRH [PDE6B_Y556_H557Y],0.47
5,CTTIHCNYMCN [TP53_Y234_Y234C],1.14
6,HGEAYYSEVKP [PAK5_Y182],2.99
7,MKVPLYETPAG [PGM5_Y358_V357L],1.81
8,PLYGEYFTLQI [TP53_Y327_D324Y],12.6
9,DAVAVYDGKIS [SH2D1A_Y7_H8D],0.83
10,SVTCTYFPALN [TP53_Y126_S127F],0.452
11,LSGVIYVILRK [PMP22_Y153],0.484
12,LLVVLYKYRCY [PSEN1_Y154],0.609
13,ALECLYHREKR [TEKT5_Y195],0.571
14,QLCVNYPGGYT [PROS1_Y259],0.537
15,LDYNEYFRGLN [HPRT1_Y198_D201G],0.892
16,LVMFIYAISGM [SCN1A_Y1684_F1687S],0.85
17,EEGEEYGGGGG [TUBA1A_Y451],0.531

row,Sequence,phosphorylation enrichment
1,FQHLRYIKQLG [SAMHD1_Y146_R143H],0.331
2,PESCFYKESWL [IQGAP2_Y630_L629F],0.516
3,PTTKTYFPHFA [HBA1_Y43_D48A],0.781
4,CTTIHYNYMFN [TP53_Y234_C238F],0.522
5,QRRYLYYYSYL [PTEN_Y176_V175L],2.84
6,FFRCHYPLTTL [TNS4_Y644_R642C],0.43
7,ALLTKYSRSSM [DSCC1_Y374_H376R],0.524
8,FGGRDYSLDEF [MYOF_Y1705_YF],0.542
9,ENKGVYVPMSG [IVD_Y277_L279P],0.449
10,RSRRSYSCQVM [IGLL1_Y192],0.924
11,AARVSYRLASG [DCHS1_Y1582],0.382
12,SEVVPYEPPEV [TP53_Y220_V216E],0.529
13,CRPPFYHRNCM [HGD_Y334_F329C_YF],0.901
14,LAGRYYALKSM [CKB_Y174],0.67
15,SNKELYEKYMI,0.96
16,ADGLEYSRTEL [MMUT_Y287_G291E],0.461

# Target: Grb2 SH2 (UniProt P62993)
# Assay: SH2 binding enrichment of the phosphorylated peptide, bacterial display (enrichment ratio); higher = better substrate or ligand; peptides without Tyr show the background
# Sequence of Grb2 SH2 (P62993 whole entry, looked up): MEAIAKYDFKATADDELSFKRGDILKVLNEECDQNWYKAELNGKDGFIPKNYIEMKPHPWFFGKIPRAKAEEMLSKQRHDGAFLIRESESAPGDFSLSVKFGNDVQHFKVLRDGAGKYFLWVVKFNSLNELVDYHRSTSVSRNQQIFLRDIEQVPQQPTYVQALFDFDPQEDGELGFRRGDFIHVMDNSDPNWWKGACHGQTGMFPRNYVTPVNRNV
row,Sequence,SH2 binding enrichment
1,EFKKHYGYSLY [ANXA3_Y295],1.31
2,LKEIHYPPFTD [ALDH3B2_Y362_YF],0.922
3,NQELIYEGQRL [TBK1_Y354_R357Q],0.537
4,YRRITYYNWRH [PDE6B_Y556_H557Y],0.742
5,CTTIHCNYMCN [TP53_Y234_Y234C],0.729
6,HGEAYYSEVKP [PAK5_Y182],0.769
7,MKVPLYETPAG [PGM5_Y358_V357L],1.01
8,PLYGEYFTLQI [TP53_Y327_D324Y],0.816
9,DAVAVYDGKIS [SH2D1A_Y7_H8D],0.735
10,SVTCTYFPALN [TP53_Y126_S127F],0.721
11,LSGVIYVILRK [PMP22_Y153],1.89
12,LLVVLYKYRCY [PSEN1_Y154],1.17
13,ALECLYHREKR [TEKT5_Y195],1
14,QLCVNYPGGYT [PROS1_Y259],0.796
15,LDYNEYFRGLN [HPRT1_Y198_D201G],0.865
16,LVMFIYAISGM [SCN1A_Y1684_F1687S],0.792
17,EEGEEYGGGGG [TUBA1A_Y451],0.97

row,Sequence,SH2 binding enrichment
1,FQHLRYIKQLG [SAMHD1_Y146_R143H],0.722
2,PESCFYKESWL [IQGAP2_Y630_L629F],1.05
3,PTTKTYFPHFA [HBA1_Y43_D48A],0.714
4,CTTIHYNYMFN [TP53_Y234_C238F],0.951
5,QRRYLYYYSYL [PTEN_Y176_V175L],0.776
6,FFRCHYPLTTL [TNS4_Y644_R642C],0.907
7,ALLTKYSRSSM [DSCC1_Y374_H376R],0.847
8,FGGRDYSLDEF [MYOF_Y1705_YF],0.782
9,ENKGVYVPMSG [IVD_Y277_L279P],0.734
10,RSRRSYSCQVM [IGLL1_Y192],0.473
11,AARVSYRLASG [DCHS1_Y1582],0.842
12,SEVVPYEPPEV [TP53_Y220_V216E],0.902
13,CRPPFYHRNCM [HGD_Y334_F329C_YF],1.27
14,LAGRYYALKSM [CKB_Y174],1.21
15,SNKELYEKYMI,0.705
16,ADGLEYSRTEL [MMUT_Y287_G291E],0.717

# Target: SHP2-C SH2
# Assay: as above
row,Sequence,SH2 binding enrichment
1,EFKKHYGYSLY [ANXA3_Y295],1.51
2,LKEIHYPPFTD [ALDH3B2_Y362_YF],0.644
3,NQELIYEGQRL [TBK1_Y354_R357Q],0.709
4,YRRITYYNWRH [PDE6B_Y556_H557Y],0.562
5,CTTIHCNYMCN [TP53_Y234_Y234C],0.711
6,HGEAYYSEVKP [PAK5_Y182],0.795
7,MKVPLYETPAG [PGM5_Y358_V357L],1.69
8,PLYGEYFTLQI [TP53_Y327_D324Y],0.809
9,DAVAVYDGKIS [SH2D1A_Y7_H8D],0.999
10,SVTCTYFPALN [TP53_Y126_S127F],0.747
11,LSGVIYVILRK [PMP22_Y153],1.4
12,LLVVLYKYRCY [PSEN1_Y154],0.87
13,ALECLYHREKR [TEKT5_Y195],0.48
14,QLCVNYPGGYT [PROS1_Y259],0.571
15,LDYNEYFRGLN [HPRT1_Y198_D201G],0.812
16,LVMFIYAISGM [SCN1A_Y1684_F1687S],1.4
17,EEGEEYGGGGG [TUBA1A_Y451],0.744

row,Sequence,SH2 binding enrichment
1,FQHLRYIKQLG [SAMHD1_Y146_R143H],0.746
2,PESCFYKESWL [IQGAP2_Y630_L629F],0.823
3,PTTKTYFPHFA [HBA1_Y43_D48A],0.734
4,CTTIHYNYMFN [TP53_Y234_C238F],1.13
5,QRRYLYYYSYL [PTEN_Y176_V175L],0.683
6,FFRCHYPLTTL [TNS4_Y644_R642C],1.03
7,ALLTKYSRSSM [DSCC1_Y374_H376R],0.615
8,FGGRDYSLDEF [MYOF_Y1705_YF],0.606
9,ENKGVYVPMSG [IVD_Y277_L279P],0.445
10,RSRRSYSCQVM [IGLL1_Y192],0.565
11,AARVSYRLASG [DCHS1_Y1582],0.759
12,SEVVPYEPPEV [TP53_Y220_V216E],1.02
13,CRPPFYHRNCM [HGD_Y334_F329C_YF],1.4
14,LAGRYYALKSM [CKB_Y174],2.14
15,SNKELYEKYMI,0.506
16,ADGLEYSRTEL [MMUT_Y287_G291E],0.596

# Target: c-Src SH2
# Assay: as above
row,Sequence,SH2 binding enrichment
1,EFKKHYGYSLY [ANXA3_Y295],1.57
2,LKEIHYPPFTD [ALDH3B2_Y362_YF],0.505
3,NQELIYEGQRL [TBK1_Y354_R357Q],0.352
4,YRRITYYNWRH [PDE6B_Y556_H557Y],0.547
5,CTTIHCNYMCN [TP53_Y234_Y234C],0.632
6,HGEAYYSEVKP [PAK5_Y182],2.44
7,MKVPLYETPAG [PGM5_Y358_V357L],1.08
8,PLYGEYFTLQI [TP53_Y327_D324Y],0.444
9,DAVAVYDGKIS [SH2D1A_Y7_H8D],0.47
10,SVTCTYFPALN [TP53_Y126_S127F],0.388
11,LSGVIYVILRK [PMP22_Y153],0.841
12,LLVVLYKYRCY [PSEN1_Y154],0.777
13,ALECLYHREKR [TEKT5_Y195],0.446
14,QLCVNYPGGYT [PROS1_Y259],0.528
15,LDYNEYFRGLN [HPRT1_Y198_D201G],0.445
16,LVMFIYAISGM [SCN1A_Y1684_F1687S],0.569
17,EEGEEYGGGGG [TUBA1A_Y451],0.6

row,Sequence,SH2 binding enrichment
1,FQHLRYIKQLG [SAMHD1_Y146_R143H],0.496
2,PESCFYKESWL [IQGAP2_Y630_L629F],0.63
3,PTTKTYFPHFA [HBA1_Y43_D48A],0.496
4,CTTIHYNYMFN [TP53_Y234_C238F],1.06
5,QRRYLYYYSYL [PTEN_Y176_V175L],0.507
6,FFRCHYPLTTL [TNS4_Y644_R642C],0.738
7,ALLTKYSRSSM [DSCC1_Y374_H376R],0.589
8,FGGRDYSLDEF [MYOF_Y1705_YF],0.75
9,ENKGVYVPMSG [IVD_Y277_L279P],3.41
10,RSRRSYSCQVM [IGLL1_Y192],0.565
11,AARVSYRLASG [DCHS1_Y1582],0.409
12,SEVVPYEPPEV [TP53_Y220_V216E],0.563
13,CRPPFYHRNCM [HGD_Y334_F329C_YF],1.36
14,LAGRYYALKSM [CKB_Y174],1.67
15,SNKELYEKYMI,0.655
16,ADGLEYSRTEL [MMUT_Y287_G291E],0.447
